Experimental data taken from US20070219129A1, “hsp90 decoy peptides and uses thereof” (priority 2005, published 2007).
Entries after “also recorded” stand apart in the source; their conditions may differ. Ends that are not written are not given here.

Assays:
B16 melanoma cells = test: Viability of B16 melanoma cells in culture (LDH release); format: cell-based; details: even at 100 μg/mL
murine facialis arteries = test: ACh-induced vasodilation of isolated, pressurized facialis arteries after acute peptide exposure; parameters: species or system C57BL/6 mice; details: 10 μg/mL, 10 min pre-treatment, vs vehicle control
Description: The B2 peptide was also shortened to 15 aa (AELVLEVPLEHPTLE) with the TAT PTD (RKKRRQRRR) added at the N-terminal as described by Pagano and associates.^6 (Note that the initial A residue is a linker.) This redesign made a new decoy peptide (RKKRRQRRR-AELVLEVPLEHPTLE), which we called TSB2. In designing a control peptide, TSB(Ctr) (RKKRRQRRR-AALVLAVPLAHPRLA), we reasoned that if E were important for binding, then replacing E with A would result in a peptide that would fail to bind to hsp90 or another heatshock protein essential to chaperone-dependent signaling and possibly mitochondrial function and therefore fail to impair vasodilation. To test these ideas, TSB2 and TSB(Ctr) (10 μg/mL) were incubated with separatefacialis arteries from healthy C57BL/6 male mice, whose vasodilation is mediated 100% by eNOS.^9 Ten minutes later, excess peptides were removed by changing the buffer and ACh-dose response curves of the preconstricted and pressurized vessels determined as before.^9

[1] = target: T1, heat shock protein 90 (hsp90), endogenous in bovine aortic endothelial cells (BAEC) (bovine, UniProt A0AAA9SQM8); test: peptide at 10 ug/mL in BAEC lysate, eNOS immunoprecipitation, western blot for hsp90
[2] = target: T1, heat shock protein 90 (hsp90), …; test: eNOS immunoprecipitation from treated BAEC cultures, western blot for hsp90 (FIG. 2)

Row | Molecule | percent decrease of hsp90 association with eNOS [1] [%] | other results
1 | RKKRRQRRRAELVLEVPLEHPTLE [TSB2, RKKRRQRRR-AELVLEVPLEHPTLE] | – | viability of B16 melanoma cells (LDH release) (B16 melanoma cells): no significant effects; also recorded: no direct effect
2 | RKKRRQRRR-AALVLAVPLAHPRLA [TSB(Ctr)] | – | effect on ACh-induced vasodilation (in words) (murine facialis arteries): no effect
3 | LPLLLQAPDEAPELFVLPPE [B1 (291-311)] | ~80 | –
4 | APELFVLPPELVLEVPLEHP [B2 (301-320)] | ~80 | –
5 | LVLEVPLEHPTLEWFAALGL [B3 (311-330)] | ~80 | –
6 | RKKRRQRRRAELVLEVPLEHPTLE [TSB2] | – | hsp90 association with eNOS relative to PEP1-treated or untreated cultures [2]: 0.25 fraction of control level
